This is an account of results in IntAct's records for PubMed 16286470.

The labels stand for the following.
B1: Dual specificity protein phosphatase 1 (Homo sapiens), P28562 (parent)
chain: MVMEVGTLDAGGLRALLGERAAQCLLLDCRSFFAFNAGHIAGSVNVRFSTIVRRRAKGAMGLEHIVPNAELRGRLLAGAYHAVVLLDERSAALDGAKRDGTLALAAGALCREARAAQVFFLKGGYEAFSASCPELCSKQSTPMGLSLPLSTSVPDSAESGCSSCSTPLYDQGGPVEILPFLYLGSAYHASRKDMLDALGITALINVSANCPNHFEGHYQYKSIPVEDNHKADISSWFNEAIDFIDSIKNAGGRVFVHCQAGISRSATICLAYLMRTNRVKLDEAFEFVKQRRSIISPNFSFMGQLLQFESQVLAPHCSAEAGSPAMAVLDRGTSTTTVFNFPVSIPVHSTNSALSYLQSPITTSPSC

In one assay the parent is B1. The following applies: with ubb_human UBB.
On to MVMEVGTLDAGGLRALLGERAAQCLLLDCRSFFAFNAGHIAGSVNVRFSTIVRRRAKGAMGLEHIVPNAELRGRLLAGAYHAVVLLDERSAALDGAKRDGTLALAAGALCREARAAQVFFLKGGYEAFSASCPELCSKQSTPMGLSLPLSTSVPDSAESGCSSCSTPLYDQGGPVEILPFLYLGSAYHASRKDMLDALGITALINVSANCPNHFEGHYQYKSIPVEDNHKADISSWFNEAIDFIDSIKNAGGRVFVHCQAGISRSATICLAYLMRTNRVKLDEAFEFVKQRRSIISPNFSFMGQLLQFESQVLAPHCSAEAGAPAMAVLDRGTSTTTVFNFPVSIPVHSTNSALSYLQSPITTSPSC [S323A], for which the “effect of a mutation on the interaction” value was “decreasing interaction”. As to MVMEVGTLDAGGLRALLGERAAQCLLLDCRSFFAFNAGHIAGSVNVRFSTIVRRRAKGAMGLEHIVPNAELRGRLLAGAYHAVVLLDERSAALDGAKRDGTLALAAGALCREARAAQVFFLKGGYEAFSASCPELCSKQSTPMGLSLPLSTSVPDSAESGCSSCSTPLYDQGGPVEILPFLYLGSAYHASRKDMLDALGITALINVSANCPNHFEGHYQYKSIPVEDNHKADISSWFNEAIDFIDSIKNAGGRVFVHCQAGISRSATICLAYLMRTNRVKLDEAFEFVKQRRSIIAPNFSFMGQLLQFESQVLAPHCSAEAGSPAMAVLDRGTSTTTVFNFPVSIPVHSTNSALSYLQSPITTSPSC [S296A], the “effect of a mutation on the interaction” value was “decreasing interaction”. Same read-out and setting: for MVMEVGTLDAGGLRALLGERAAQCLLLDCRSFFAFNAGHIAGSVNVRFSTIVRRRAKGAMGLEHIVPNAELRGRLLAGAYHAVVLLDERSAALDGAKRDGTLALAAGALCREARAAQVFFLKGGYEAFSASCPELCSKQSTPMGLSLPLSTSVPDSAESGCSSCSTPLYDQGGPVEILPFLYLGSAYHASRKDMLDALGITALINVSANCPNHFEGHYQYKSIPVEDNHKADISSWFNEAIDFIDSIKNAGGRVFVHCQAGISRSATICLAYLMRTNRVKLDEAFEFVKQRRSIISPNFSFMGQLLQFESQVLAPHCSAEAGSPAMAVLDRGTSTTTVANAPVSIPVHSTNSALSYLQSPITTSPSC [F339A;F341A] the value was “decreasing interaction”.

The variants in a further assay derive from B1. The following applies: with skp2_human SKP2, Q13309.
skp2_human SKP2, Q13309, sequence (Q13309 whole entry): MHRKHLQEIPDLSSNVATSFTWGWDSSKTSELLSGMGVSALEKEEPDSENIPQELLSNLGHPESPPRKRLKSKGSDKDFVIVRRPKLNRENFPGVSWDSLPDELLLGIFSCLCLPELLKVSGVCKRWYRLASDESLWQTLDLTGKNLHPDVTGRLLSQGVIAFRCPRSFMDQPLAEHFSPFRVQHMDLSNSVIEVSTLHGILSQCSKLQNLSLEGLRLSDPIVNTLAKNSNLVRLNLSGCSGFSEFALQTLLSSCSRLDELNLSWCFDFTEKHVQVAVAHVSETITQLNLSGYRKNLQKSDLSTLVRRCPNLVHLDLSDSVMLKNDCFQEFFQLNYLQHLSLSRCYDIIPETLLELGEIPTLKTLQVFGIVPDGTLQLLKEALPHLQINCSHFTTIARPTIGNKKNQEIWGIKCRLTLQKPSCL
On to MVMEVGTLDAGGLRALLGERAAQCLLLDCRSFFAFNAGHIAGSVNVRFSTIVRRRAKGAMGLEHIVPNAELRGRLLAGAYHAVVLLDERSAALDGAKRDGTLALAAGALCREARAAQVFFLKGGYEAFSASCPELCSKQSTPMGLSLPLSTSVPDSAESGCSSCSTPLYDQGGPVEILPFLYLGSAYHASRKDMLDALGITALINVSANCPNHFEGHYQYKSIPVEDNHKADISSWFNEAIDFIDSIKNAGGRVFVHCQAGISRSATICLAYLMRTNRVKLDEAFEFVKQRRSIIAPNFSFMGQLLQFESQVLAPHCSAEAGSPAMAVLDRGTSTTTVFNFPVSIPVHSTNSALSYLQSPITTSPSC [S296A], for which the “effect of a mutation on the interaction” value is “decreasing interaction”.
